EC50 data for 1 substance are collected here from patent publication WO2019096294A1.

This assay addresses His-tagged human prothrombin (human) (UniProt P00734). Nature of the assay: binding ELISA; His-tagged human prothrombin coated on plate.

Regarding Ichorcumab (antibody), the EC50 (as a rule, the concentration at which the effect is half-maximal) was 0.282 µg/mL.
